Measurements from the DeepSol protein solubility set.

Assay: soluble on expression in E. coli; label from the status in PepcDB or PDB records

Soluble on expression in E. coli, not soluble:
MGSDKIHHHHHHMKKIPCVMMRGGTSRGAFLLAEHLPEDQTQRDKILMAIMGSGNDLEIDGIGGGNPLTSKVAIISRSSDPRADVDYLFAQVIVHEQRVDTTPNCGNMLSGVGAFAIENGLIAATSPVTRVRIRNVNTGTFIEADVQTPNGVVEYEGSARIDGVPGTAAPVALTFLNAAGTKTGKVFPTDNQIDYFDDVPVTCIDMAMPVVIIPAEYLGKTGYELPAELDADKALLARIESIRLQAGKAMGLGDVSNMVIPKPVLISPAQKGGAINVRYFMPHSCHRALAITGAIAISSSCALEGTVTRQIVPSVGYGNINIEHPSGALDVHLSNEGQDATTLRASVIRTTRKIFSGEVYLP
MGSDKIHHHHHHMKKKLALVVVHEIYGVNDHMHHVTDHFTSSHIDVFCPNLLQSQPAFHYSDEEKAYHFFMNHIGFEDGKKQIETFITHLSSRYTHIGLIGFSVGATISWLCSNNPKIDFIIGCYGSRIRDYIHMKPTCATLLIFPEKEASFSVPSFIQSLQQQKNPLLEIYQLHGEHGFLNPYTEKYNGHSTNQAYNLIDSFLVKNTLIKEM
MGSDKIHHHHHHMKKLRKIIEINEELCNGCGQCISACAESALALVNGKARVVSDNLCDGLGTCIGECPTGALKIVEREAEEFDAQAVEIARSCPSTRMVMTFTAGTPSSEARPSALSHWPVKIRLIPENAPFLKGADLLVVADCVPVAFSDLHGRFLPGKVVMAGCPKFDEAQPYIEKFAGIFHNAGIRRVTVLTMEVPCCSGLPILVRKGMELAGVRVPMEVAVISTRGEILDKTA
MGSDKIHHHHHHMKKLSHQFDKPKRSVASPEALEALRNNNAVRWYVLSLPDCHRGGVRGLQREQDRRIQAGEPSFGFFAPSYQEVRRIDGKFVNTQRPLLFNYVFVRASERDVFQLMQRFPVLSFLPRVRERKREYFPYLSDAAMENLQWVARSYSNTLPVYIPQPDGLRKGDRIRITEGRFKGVEATVVIQPGAGRKDVMVCVENWMWVPLLRVMPGEYEVIALNDEDKHVYTRLDNDCMLNGLHSALQRYHSAEGVNEEDRSLAARALKEYGNLRMDTDVMRCKLYAILLPAYTILGMEEEAAKLVGVMQTMLPLVKAEQSRALAVVTLYGCTDSSIYYHLAHEAVDPWKKEEKPKKSKQQLINRLADYDRWLRH
MGSDKIHHHHHHMKKLVENLLSWCKKSMKMRRCVGKSTAPVTGQSVGQTGNAEGVLPSTATETVDEIVLPAAVETAGMVETIDEKAAFGKSGRKKPENMLDALQRFLTIRYDFRYNLLTEQTEYRGKEMPDEEYAMVAQRDLNTFCLEARTGGINCWDKDVSRLLHSRKVENYHPFLHYMSHLPQWDGVDRVTPLAVRISRKPMWVKGFHRWMLGVAAQWLGQAQDCANAVAPMLVSREQGKRKSSFCKILMPKELTPYYIDKFDLTSESGCEQKLSLFGLINMDEFDKYRAGQMPALKNLMQTTTLTFRRAHRPAFSHLPRIASFIGTSNMTDLLTDPTGSRRFLCAEVDGKIDCTPPDHAQLFAQLKAELAGGERYWFSEEEEKEIQHSNRNFYKMPAEQELFLRCFRMPQEGELSKPYTTTDLFNYLQKHYPAAMRGVTPNRLGRMMVALGIQRVHTEYGNVYRLVKLKDSSAA
MGSDKIHHHHHHMKKLVVRADDIGYSEGVTLGIISSYKNGIVTSAGIMVNMPFSRQAIEMVKNDDVCFGLHVNLVIGEPCCKEHIKIKNLLDEGGKFVSSKIRRTQLLTGKEVFNYEEVYEEVCAQIETYKLYMSKLPEYIDIHGIEEDVSISAMCDAAKEYGIPSCPYYLDSCISMPSKYPQNDFYKLNKSFVKLFEEKYINLDKDITLMVTHPGFIDYSLIKSSSLIQERVYEHAMLCDKEVKMWLKRNNIELVDFKDIFKSNNYI
MGSDKIHHHHHHMKKNQKISVEQLEVGTFIRLPISWKDHPFLFSSFKIKDAAQIELIKGLGLKDVFFDPEKSDVEPVTSENASTQKPDEQALNALKEQMISQKSAKIDEQQKLKRDLKKTEQQFNRSVSMMRSMVSKISSRPLNAVSEAKDLISNMTTMLLNSDNLALHLMGDAKNDEHIYHHSLNVAMLCMLMAKELGWSREEVETIGIGGLFHDIGKLKVPSNILNKRVPLTTPEENFIKQHPLMSINFLKLADSFPDEAKPLIANHHEYLDGSGYPQGLKADKLDKLSQLIAVVNEYDNLCNGTNQAKGKPPSIALGLLYKNYKNKLNVEYISKLIKMLGIYPPGSIIELSSGQFAMVMSVNLQKLLCPNIVVYDQLVPKDLAPIISLQDEGLSIVRSLPAAALPEKIHKYLNPREQISLGIGQN
MGSDKIHHHHHHMKKSERLNQELFFLRTHPQFNLNQLMKTFGISKSTALRDIEALENLGVPLYVENGRYGGYRVLNKPLLPPIYFNENEVLAIFFSLQLLKLVAESPFGHSYQQIKQKLLHSLDEPTQFKISQMSKVVYYEGIEQVEAPGNLEQLFHCILAQQVIQFNYTRYEATTKKILPTRLTILEGYWYCSGYDVTKKAWRTYRCDFMEAIQQLNQTLDFTTEELKESYRHQQTTARTIPFKAIITEKGKEFFYKHRFDNIQLEETPTQCFLVGQIHPTETQFLANYFMGFGEEVTILDPVQVKQAYVESIMRIQKKYQE
MGSDKIHHHHHHMKLAYFVIPHIGGTYSVFKHLRKGLAAYDIDVRWLGVCKETYGLPLDLQGETAFGQLLRMPVNLSERDCAARMAAAIENGGFDGVIVNVLGDQLQTNIARYLPEGILRILVVHNISPGTYAAARSVRDYAHVTIGVSERCRADLVARNGFPKDRTYAIPNAVDSDAFRSQAVRRVNRGPELKVLFVGRIEDASKGVMWLREILDGSPEAVRLTIVGDGPDMGKLRRRLASHDDRVSYAGSVQLSDIPVIMASHDVLIMPSRFEGLGMTMIEAMAGGCVPVVSHIRGVTDTIVEPGRNGFLFPIGNYTAAANAIGRLHADRDLLERMSIAGKEMVLNRFSIERMAARYNEVIAMTLNDRPGLSTVLRMEDWSIPAGLRPGLRTYLPLPLKNWLRVVRERL
MGSDKIHHHHHHMKLILSVESVRFPLTGIGRYTYELASRLQHAEQISDLRLFAGSRFLPELLKPSDQSDAVHGLKRFVQKNALAVEAYRRLMPLLRKRALRGHEDFIYHSTNFYLPPFAGPRVATFHDLSPFTWAHCHTPQIARYLQKELKLTLERADALITVSHHTRKELADYFGWPLERIHAVPLASSPQFHPRTPQALRETLARHGLELGGYSLFVGTIEPRKNIETLLNAYGRLPLALRQRWPLILSGYHGWRSEAIHSRIAQAQQEGWARYLGFVASEDLPLLFAGARLFTFPSHYEGFGLPVLEAMSSGVPVVCSNSSSLPEVAGSAALMCAPDDVEGLTGLLHQGLEDEAWRSAAVQRGLLHAGGFSWERCAQGTVEVYKSVKER
MGSDKIHHHHHHMKLLEVKGLKKYFPLTKGFFKKVVGYVRAVDDVSFDIKQGETLALVGESGCGKTTTAKSILRAIDPTDGDVILHLDGKDVNIAKLSRDELKPYRRYMQMIFQNPYTSLNPRMKVKEIVGEPLLVNGIAKGKELEDRVAELLKAVGLRPEYMIRYPHAFSGGQRQRIVIARAIALRPKLVVCDEPTSALDVSIRAQILNLLMDLQEEFALTYLFITHDLSVVEHISDRVAVMYLGKIVELSSTEEIFENPKHPYTETLLRSVPKPDPDLREELVPIEGEVPNPANPPSGCYFHPRCPYAKSICKEEYPEFRNLGTEDNPHYVACHFAESLKLRGVKITL
MGSDKIHHHHHHMKLRELLSIGDLKKGKILTKEIGLDNEVDSAMVLEAIDIENWSRKNQLILTSFYALHDLPEKELENFFVKMRRIGISGLILKTDRFIKMIPEWFIELCFNYEIPLIKITQDISYEKILFTIYEPLLNYQSHVLRTYYDVRQRFTKLERHYPTVETIMQEFYDIIKLPFALKMLDKHLEISDGDLPHDAIVLSREKLKNSEFTKNDYSLLTLYSHANPKKQLALEVSIFNSYSTNCLLLVYLQDEKVKETDLVIIENAIDVLQEKFNTENLLKKERYTRLNNLADAILQNTPQNPDELNSLLREVQMQELDSYQAIAFSTKDTNTQLMKERIIALLRTLRVKSIFFDQLNYSAVLFNFNESDGKITKLQLSRLLAELLEENDTLTVAVSSLKSREGIKELLIECLDILRFNETFYNGPIVTLADIGVFKNFIREDQLENLDELIPRALYQLAENNYDLFETLYSFFQNNRNYKQTSEAMFLHSKTIRYRLNKVEQLLDIDLANPLQLLNYEIATYIIKMRRRALEKQSNTR
